Assay results from patent US20110135573A1, “METALLOPROTEINASE 9 AND METALLOPROTEINASE 2 BINDING PROTEINS” (DYAX CORP., priority 2009, published 2011).
Residue numbers refer to the chain shown, from its start. Values belong to the molecule of their own block, whether it stands above or below them.

Biological target: T1, mouse MMP-2 (Mus musculus, UniProt P33434)
T1 construct: purchased R&D Systems 924-MP-010
Assay: Enzyme inhibition assay (single point inhibition, IC50/Ki,app), substrate M-2350
Type: biochemical
Protocol: 343 unique sFabs from the anti-MMP-9/-2 M237-D02 affinity maturation campaign were discovered by phage display, produced in small scale (6 mL cultures in deep 24-well plates) and screened to select inhibitors with sub-nanomolar potency against the human enzymes and at least single-digit nanomolar potency toward the mouse orthologues. […] Isolates which appeared potent against both human and mouse MMP-2 were then subjected to IC50 analysis against hMMP-9. Sub-nanomolar inhibitors of hMMP-9 were further tested by IC50 analysis against mMMP-9 and h/m MMP-2, if sufficient small-scale sFab material was available. Thirteen potential h/m MMP-9/-2 sFab inhibitors were then produced in medium scale (250 mL cultures in flasks) and retested for h/m MMP-9 and h/m MMP-2 inhibition. Five potential lead candidates were reformatted as IgGs and retested in enzyme inhibition assays.
Human MMP-9 (Biomol #SE-244), mouse MMP-9 (R&D Systems #909-MM-010), human MMP-2 (Biomol #SE-237) and mouse MMP-2 (R&D Systems #924-MP-010) were tested at final concentrations of 1 nM, 0.25-0.4 nM, 2.5 nM and 0.2 nM, respectively. Target enzymes were incubated with inhibitor for two hours at 30° C. in reaction buffer (50 mM Tris-HCl pH 7.5, 150 mM NaCl, 5 mM CaCl2, 0.05% Brij-35) in a total volume of 90 μL using a white 96 well plate (Costar). Reactions contained 5 μL of small-scale sFab stock solution (average concentration of 500 nM) for single point inhibition analysis or a concentration series of sFab/IgG for IC50 Ki,app determinations. Commercially available anti-MMP-9 antibodies (Millipore mAb 13415 and R&D Systems polyclonal IgG #AB911) were tested by IC50 analyses using 100 nM and 500 nM as the highest inhibitor concentrations, respectively. An anti-MMP-2 antibody (R&D Systems polyclonal IgG #AF902) was similarly tested with 200 nM as the highest inhibitor concentration. Reactions were initiated by the addition of 10 μL of a 10× concentrated stock of substrate, Mca-Lys-Pro-Leu-Gly-Leu-Dap(Dnp)-Ala-Arg-NH2, (Bachem M-2350), at final concentration of 10 μM and monitored at 30° C. in a Molecular Devices' Gemini fluorescence plate reader. The excitation and emission wavelengths were set at 328 nm and 393 nm, respectively. Kinetic data were acquired by the increase in fluorescence, and initial rates for each condition were plotted against the total inhibitor concentration. Reactions were performed in duplicates and all data replicates were plotted in a single graph and fit to the following equation^1:
Where A=initial rate observed at each inhibitor concentration; Ao=initial rate observed in the absence of inhibitor; Ainh=initial rate observed for the enzyme inhibitor complex; Inh=concentration of inhibitor; E=total enzyme concentration (treated as a floated parameter); and Ki,app=apparent equilibrium inhibition constant.

T1 sequence (P33434 110-662): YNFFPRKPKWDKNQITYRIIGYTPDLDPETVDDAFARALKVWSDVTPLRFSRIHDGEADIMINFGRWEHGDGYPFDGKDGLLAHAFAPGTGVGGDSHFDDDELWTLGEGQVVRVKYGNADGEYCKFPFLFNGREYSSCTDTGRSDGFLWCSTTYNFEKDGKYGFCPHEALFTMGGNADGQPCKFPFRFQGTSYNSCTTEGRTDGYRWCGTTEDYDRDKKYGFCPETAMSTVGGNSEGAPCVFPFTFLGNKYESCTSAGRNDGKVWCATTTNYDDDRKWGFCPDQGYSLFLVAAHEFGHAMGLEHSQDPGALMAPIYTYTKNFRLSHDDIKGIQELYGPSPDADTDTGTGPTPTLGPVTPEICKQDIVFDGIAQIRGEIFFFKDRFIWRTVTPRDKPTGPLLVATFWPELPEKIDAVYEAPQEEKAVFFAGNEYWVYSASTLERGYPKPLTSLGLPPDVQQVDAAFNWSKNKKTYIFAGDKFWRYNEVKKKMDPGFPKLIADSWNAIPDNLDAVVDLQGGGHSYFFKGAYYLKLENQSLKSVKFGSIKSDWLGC

Ki (medium-scale sFab, Table 10): 30 nM
Ki (small-scale sFab, Table 10): 30 nM
B1: M0299-A12: affinity matured variant of M237-D02, sFab (antibody, V domains shown)
VH: EVQLLESGGGLVQPGGSLRLSCAASGFTFSHYPMWWVRQAPGKGLEWVSYISSSGGGTFYADSVKGRFTISRDNSKNTLYLQMNSLRAEDTAVYYCAKDRAYGDYVGWNGFDYWGQGTLVTVSS
VL: QDIQMTQSPATLSLSPGERATLSCRASQSISSFLAWYQQKPGQAPRLLIYDASYRATGIPARFSGSGSGTDFTLTISSLEPEDYAVYYCQQRGNWPITFGQGTRLEIK

Ki (medium-scale sFab, Table 10): 2.7 nM
Ki (small-scale sFab, Table 10): 2.7 nM
B3: M0274-G08: affinity matured variant of M237-D02, sFab (antibody, V domains shown)
VH: B1 VH with H31V, P33D, Y50V, S52Y, S53P, G57A, F59Y
VL: B1 VL

Ki (medium-scale sFab, Table 10): 22 nM
Ki (small-scale sFab, Table 10): 22 nM
B5: M0273-G07: affinity matured variant of M237-D02, sFab (antibody, V domains shown)
VH: B1 VH with P33D, Y50V, S52Y, S53P, G57P, F59Y
VL: B1 VL

Ki (medium-scale sFab, Table 10): 2.2 nM
Ki (small-scale sFab, Table 10): 2.2 nM
B9: M0307-F04: affinity matured variant of M237-D02, sFab (antibody, V domains shown)
VH: B1 VH with H31L, P33D, Y50V, S52Y, G57Y, F59G
VL: B1 VL

Ki (medium-scale sFab, Table 10): 18 nM
Ki (small-scale sFab, Table 10): 18 nM
B10: M0273-C10: affinity matured variant of M237-D02, sFab (antibody, V domains shown)
VH: B1 VH with H31F, S52Y, S53P, G57A
VL: B1 VL

Ki (medium-scale sFab, Table 10): 15 nM
Ki (small-scale sFab, Table 10): 15 nM
B11: M0275-E12: affinity matured variant of M237-D02, sFab (antibody, V domains shown)
VH: B1 VH with P33D, Y50V, S52Y, G57F, F59G
VL: B1 VL

Ki (medium-scale sFab, Table 10): 5.4 nM
Ki (small-scale sFab, Table 10): 5.4 nM
B12: M0275-D03: affinity matured variant of M237-D02, sFab (antibody, V domains shown)
VH: EVQLLESGGGLVQPGGSLRLSCAASGFTFSQYDMWWVRQAPGKGLEWVSVIYPSGTTFYADSVKGRFTISRDNSKNTLYLQMNSLRAEDTAVYYCAKDRAYGDYVGWNGFDYWGQGTLVTVSS
VL: B1 VL

Ki (medium-scale sFab, Table 10): 25 nM
Ki (small-scale sFab, Table 10): 25 nM
B14: M0301-D12: affinity matured variant of M237-D02, sFab (antibody, V domains shown)
VH: B1 VH with H31M, P33D, Y50V, S52Y, G57Y, F59S
VL: B1 VL

Ki (medium-scale sFab, Table 10): 21 nM
Ki (small-scale sFab, Table 10): 21 nM
B17: M0301-A09: affinity matured variant of M237-D02, sFab (antibody, V domains shown)
VH: B1 VH with H31Y, P33D, Y50V, S52Y, S53P, G57Y, F59A
VL: B1 VL

Ki (medium-scale sFab, Table 10): 3.7 nM
Ki (small-scale sFab, Table 10): 3.7 nM
B18: M0276-F11: affinity matured variant of M237-D02, sFab (antibody, V domains shown)
VH: B1 VH with H31W, P33D, Y50V, S52Y, G57P
VL: B1 VL

Continued, molecule first:

B2: M0273-B10: affinity matured variant of M237-D02, sFab (antibody, V domains shown)
VH: B1 VH with H31K, P33A, W35I, Y50W, S52P, S53P, G57Y, F59S
VL: B1 VL
Ki (medium-scale sFab, Table 10): 59 nM
Ki (small-scale sFab, Table 10): 59 nM

B4: M0272-H08: affinity matured variant of M237-D02, sFab (antibody, V domains shown)
VH: B1 VH with H31A, P33D, Y50V, S52Y, S53P, G57T
VL: B1 VL
Ki (medium-scale sFab, Table 10): 46 nM
Ki (small-scale sFab, Table 10): 46 nM

B6: X0106-C03: germlined, optimized version of M0274-G08, IgG1 (antibody, V domains shown)
VH: B1 VH with H31V, P33D, Y50V, S52Y, S53P, G57A, F59Y
VL: EIVLTQSPATLSLSPGERATLSCRASQSISSFLAWYQQKPGQAPRLLIYDASYRATGIPARFSGSGSGTDFTLTISSLEPEDFAVYYCQQRGNWPITFGQGTRLEIK
Ki (IgG, Table 12): 3.2 nM

B7: X0106-A01: germlined, optimized version of M0256-D11, IgG1 (antibody, V domains shown)
VH: B1 VH with P33D, Y50V, S52Y, G57P
VL: B6 VL
Ki (IgG, Table 12): 4.7 nM

B8: M0256-D11: affinity matured variant of M237-D02, sFab (antibody, V domains shown)
VH: B1 VH with P33D, Y50V, S52Y, G57P
VL: B1 VL
Ki (medium-scale sFab, Table 10): 4.2 nM
Ki (small-scale sFab, Table 10): 4.2 nM

B13: X0106-B02: germlined, optimized version of M0276-F11, IgG1 (antibody, V domains shown)
VH: B1 VH with H31W, P33D, Y50V, S52Y, G57P
VL: B6 VL
Ki (IgG, Table 12): 4.2 nM

B15: M0273-A11: affinity matured variant of M237-D02, sFab (antibody, V domains shown)
VH: B1 VH with H31R, P33D, Y50V, S53P, G57A
VL: B1 VL
Ki (medium-scale sFab, Table 10): 32 nM
Ki (small-scale sFab, Table 10): 32 nM

B16: X0106-F05: germlined, optimized version of M0307-F04, IgG1 (antibody, V domains shown)
VH: B1 VH with H31L, P33D, Y50V, S52Y, G57Y, F59G
VL: B6 VL
Ki (IgG, Table 12): 3 nM

B19: X0106-E04: germlined, optimized version of M0275-D03, IgG1 (antibody, V domains shown)
VH: B12 VH
VL: B6 VL
Ki (IgG, Table 12): 3.9 nM
